Measurements reported in US20140286859A1 (published 2014).
“And” between values parts separate entries of the source, which are not always exact repeats. Equal entries are not always repeated.

Target: recombinant soluble PSMA (rsPSMA) (human, UniProt Q04609 44-750)
Sequence (Q04609 44-750): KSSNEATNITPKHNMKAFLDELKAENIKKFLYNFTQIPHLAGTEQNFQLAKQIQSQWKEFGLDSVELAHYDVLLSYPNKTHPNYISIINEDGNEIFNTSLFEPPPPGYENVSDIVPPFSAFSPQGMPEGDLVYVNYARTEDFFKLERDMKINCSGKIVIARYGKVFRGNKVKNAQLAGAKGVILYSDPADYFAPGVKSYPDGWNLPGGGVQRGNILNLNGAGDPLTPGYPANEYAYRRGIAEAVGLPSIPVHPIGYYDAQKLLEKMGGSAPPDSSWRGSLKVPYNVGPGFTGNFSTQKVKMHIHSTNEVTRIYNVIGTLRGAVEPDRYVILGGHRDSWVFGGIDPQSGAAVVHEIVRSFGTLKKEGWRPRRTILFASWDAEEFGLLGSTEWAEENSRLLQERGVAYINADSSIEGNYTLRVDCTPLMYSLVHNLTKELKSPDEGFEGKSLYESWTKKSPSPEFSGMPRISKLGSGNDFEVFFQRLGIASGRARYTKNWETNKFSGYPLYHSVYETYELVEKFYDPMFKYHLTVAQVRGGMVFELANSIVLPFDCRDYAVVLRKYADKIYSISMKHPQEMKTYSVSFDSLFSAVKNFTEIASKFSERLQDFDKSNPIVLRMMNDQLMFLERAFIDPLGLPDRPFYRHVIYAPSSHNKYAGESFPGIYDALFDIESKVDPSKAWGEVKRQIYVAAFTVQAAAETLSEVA

B1: PSMA 10.3 (antibody, V domains shown)
VH: QEQLVESGGGVVQPGRSLRLSCAASGFTFSTYGMHWVRQAPGKGLEWVAVTWHDGSNKYYADSVKGRFTISRDNSKNTLYLQMNSLRAEDTAVYYCARGGVGATYYYYYGMDVWGQGTTVTVSS
VL: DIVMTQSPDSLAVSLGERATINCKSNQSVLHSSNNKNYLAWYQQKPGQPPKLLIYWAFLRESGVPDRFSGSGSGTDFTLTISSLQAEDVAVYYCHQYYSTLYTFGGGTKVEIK
koff: 6.32e-05 s⁻¹ and 6.43e-05 s⁻¹
